Key:
BALL-1 cells (CD10neg) = experiment: cells; conditions: 24 h
Experimental: (§1) Suspension cells, BALL-1, Ramos and Namalwa cells were cultured in RPMI media containing 10% heat inactivated fetal calf serum (FCS). On the day of the study, the cells were collected, washed and resuspended at a concentration of 0.5×10^6 cells/ml in RPMI containing 10% FCS. 100 µl of cell suspension was added to 96 well plates. […] Finally 10 μl of a 100 μCi/ml ^3H-thymidine was added per well and the plates were incubated for 24 hours. The plates were harvested using a 96 well Harvester (Packard Instruments) and counted on a Packard Top Count counter. Four parameter logistic curves were fitted to the ^3H-thymidine incorporation as a function of drug molarity using Prism software to determine IC50 values.
(§2) The effect of two known inhibitors of CD10 on prodrug activity in Ramos, LNCaP and Ball-1 cells was evaluated. The IC50 of Suc-βAla-Ile-Ala-Leu-Dox was determined in the presence of increasing concentration of the CD10 inhibitors, phosphoramidon and thiorphan.

Ramos cells (CD10pos) = experiment: cells; conditions: 24 h
Experimental: as §1, §2

[1] = Metabolism and clearance in normal mice (plasma and urine, LC MS/MS); assay type: in vivo; conditions: mouse, in vivo; for dose excreted: iv, 117 mg/kg
Experimental: The metabolism and clearance of Suc-Ile-Ala-Leu-Dox was studied in normal mice. The mice were administered Suc-Ile-Ala-Leu-Dox at a single intravenous bolus dose of 117 mg/kg. Plasma samples were obtained at 1 and 4 hours. Plasma samples of 100 μl were transferred to microcentrifuge tubes (1.5 mL) and an internal standard of daunorubicin (20 μL at 0.5 mg/ml) was added together with acetonitrile (400 μl). The tubes were capped and briefly vortexed followed by centrifugation at 14,000 rpm. 420 μl from each tube was removed and dried in vacuo. Each sample was reconstituted in 65 μl 20 mM aqueous ammonium formate pH 4.5 buffer (AF) containing acetonitrile (20%) prior to analysis by reverse phase liquid chromatography in combination with tandem mass spectrometry (LC MS/MS).
Urine was collected at 2 and 24 hours post administration from pairs of mice in metabolic cages. Urine samples were diluted with AF containing acetonitrile (20%) to give a target analyte concentration within the practical range of the LC MS/MS assay. 30 μl of each diluted sample was placed in an Eppendorf tube (1.5 ml) and an internal standard of daunorubicin (20 μL at 0.5 mg/ml) was added together with 50 μl of AF containing acetonitrile (20%). Each sample was then analyzed by LC MS/MS.
An Agilent HP1100 HPLC with DAD detector and Chemstation software was coupled to a PE Sciex API 365 mass spectrometer with an electrospray ion source. HPLC was performed on a TSK-Gel Super ODS, […], 4.6×50 mm (TosoHaas) reversed phase column equipped with a […] C18 guard disc (Higgins Analytical) and stainless steel frit (Upchurch Scientific). Chromatography was performed at room temperature. The flow rate was 0.5 ml/min. Injection volume was 50 μL. Gradient elution was performed using a mobile phase of 20 mM aqueous AF pH 4.5 buffer with increasing amounts of acetonitrile. The API 365 was operated at 365° C. in a multiple reaction monitoring mode, set to monitor specific analyte parent-daughter ion pairs. Integration of chromatograms was performed by MacQuant software (PE Sciex) and quantitation of each analyte obtained by comparison to previously obtained calibration curves. Daunorubicin was used as an internal standard in all cases.
For the calculation of percent of administered dose, plasma volume was estimated to be 40% of blood volume, which was calculated as 7% of animal's body weight. At 2 and 24 hours the parent compound was detected in urine at 3.9% and 15.0% of the administered dose, showing that the kidney is a major organ of excretion for the prodrug (FIG. 17).
Plasma samples were obtained at 1 and 4 hours from separate mice. Urine was collected at 2 and 24 hours post administration from pairs of mice in metabolic cages. The plasma and urine samples were prepared and analyzed as described in Example 17.

Row | Structure (SMILES) | IC50 (BALL-1 cells (CD10neg)) | IC50 (Ramos cells (CD10pos)) | Plasma (% adm. dose) 1 hr [1] | Plasma (% adm. dose) 4 hr [1] | dose excreted ([1]; Urine (% adm. dose) 2 hr) | dose excreted ([1]; Urine (% adm. dose) 24 hr)
1 | COc1cccc2c1C(=O)c1c(O)c3c(c(O)c1C2=O)C[C@@](O)(C(=O)CO)C[C@@H]3O[C@H]1C[C@H](NC(=O)[C@H](CC(C)C)NC(=O)[C@H](Cc2ccc(O)cc2)NC(=O)[C@H](CC(C)C)NC(=O)CCC(=O)O)[C@H](O)[C@H](C)O1 [Suc-Leu-Tyr-Leu-Dox] | 17 µM | 20 µM | – | – | – | –
2 | COc1cccc2c1C(=O)c1c(O)c3c(c(O)c1C2=O)C[C@@](O)(C(=O)CO)C[C@@H]3O[C@H]1C[C@H](NC(=O)[C@H](CC(C)C)NC(=O)[C@H](C)N)[C@H](O)[C@H](C)O1 [Ala-Leu-Dox] | – | – | 0.00 % adm. dose | 0.00 % adm. dose | 0% | 0%
3 | COc1cccc2c1C(=O)c1c(O)c3c(c(O)c1C2=O)C[C@@](O)(C(=O)CO)C[C@@H]3O[C@H]1C[C@H](NC(=O)[C@@H](N)CC(C)C)[C@H](O)[C@H](C)O1 [Leu-Dox] | – | – | – | – | 1.17% | 2.25%
